Measured values published in PMC4142212 (Nature, 2014).

How the values were obtained:
[1] = tested on: ZMYND11 PBP; assay: Histone peptide pull-down, GST-ZMYND11 PBP; assay type: binding, mouse; details: mild buffer: 50 mM Tris-HCl 7.5, 200 mM NaCl, 0.05% NP-40, 1 mM PMSF
[2] = target: T1, ZMYND11 PBP (PHD-Bromo-PWWP, aa74-371) (Mus musculus, UniProt Q8R5C8); assay: ITC, ZMYND11 PBP domains; assay type: binding; details: n value fixed at 1
T1 sequence (Q8R5C8 74-371): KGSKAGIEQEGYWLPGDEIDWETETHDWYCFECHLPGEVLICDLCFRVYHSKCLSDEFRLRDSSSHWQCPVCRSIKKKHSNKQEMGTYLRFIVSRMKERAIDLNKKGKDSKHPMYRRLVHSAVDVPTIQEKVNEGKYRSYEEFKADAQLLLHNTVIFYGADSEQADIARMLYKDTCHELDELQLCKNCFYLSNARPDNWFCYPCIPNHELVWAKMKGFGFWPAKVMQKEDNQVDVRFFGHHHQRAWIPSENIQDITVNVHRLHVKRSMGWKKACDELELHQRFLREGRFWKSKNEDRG

[3] = target: T2, ZMYND11 BP (Bromo-PWWP, 154-371) (Mus musculus, UniProt Q8R5C8); assay: ITC, ZMYND11 BP domains; assay type: binding; details: n value fixed at 1
T2 sequence (Q8R5C8 154-371): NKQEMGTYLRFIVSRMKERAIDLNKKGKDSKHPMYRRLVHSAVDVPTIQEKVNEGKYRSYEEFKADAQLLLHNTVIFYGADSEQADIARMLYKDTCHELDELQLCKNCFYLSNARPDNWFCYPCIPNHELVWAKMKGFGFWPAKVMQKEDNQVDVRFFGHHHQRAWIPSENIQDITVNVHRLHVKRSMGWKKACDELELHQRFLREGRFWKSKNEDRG

Substance: H3.1K36me3: synthetic histone H3.1_19-42K36me3 peptide
- peptide pull-down binding, mild buffer [1]: weak binding
- Titration c-value [2]: 0.16
- Titration c-value [3]: 0.15
